According to the supplement of paper PMC10724198:
± gives the standard deviation of the averaged measurements.

System: Saccharomyces cerevisiae
Assay: protein stability index of tFT-peptide fusion (C-terminal peptide) (PSI (0-1 scale)); higher = more stable (slower turnover)
Details: genetic background: wild type; temperature: 30 C
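Note: PSI is a weighted mean of sequencing reads over stability bins, variants kept only with over 10 reads, mCherry proximal and sfGFP distal, peptide attached via GGGS linker.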

Row | Sequence | protein stability index
1 | MLFWDVGLLVFN | 0.579 ± 0.049
2 | MLFWPPPSLRMP | 0.701 ± 0.0083
3 | MLPTPSPPRPPF | 0.698 ± 0.021
4 | MNFCLGVFVDLA | 0.6857 ± 0.0037
5 | MRECGLSEARGG | 0.651 ± 0.021
6 | MRKGNGGGPRRR | 0.728 ± 0.019
7 | MRLTLGSHMAYY | 0.69 ± 0.082
8 | MTRGRWAKKTAK | 0.688 ± 0.038
9 | MVKLGVGREEVV | 0.655 ± 0.018
10 | MVVEGLERWGRV | 0.723 ± 0.045
11 | MWPCRVRWLDHW | 0.73 ± 0.034
12 | MYASVGAIHPRL | 0.738 ± 0.074
13 | NACLRNPTTKGG | 0.694 ± 0.086
14 | NAFSHSASRVIS | 0.682 ± 0.016
15 | NAGNDVFSLDIC | 0.683 ± 0.034
16 | NCRGNLDFGPLV | 0.727 ± 0.042
17 | NDLRRAVSARYV | 0.676 ± 0.032
18 | NFGLYGAPFTLG | 0.665 ± 0.041
19 | NFNRKTNGVFRS | 0.693 ± 0.059
20 | NFRILIKKRGDE | 0.643 ± 0.071
21 | NGAGRGMVGGCG | 0.666 ± 0.079
22 | NGLACGSLTLLK | 0.6738 ± 0.0019
23 | NGPDAKTIEVRQ | 0.658 ± 0.048
24 | NGRTYIDEESKI | 0.745 ± 0.16
25 | NGVLRPMATGAP | 0.666 ± 0.039
26 | NGYASLGGEPKR | 0.7576 ± 0.0041

Row | Sequence | protein stability index
27 | NIHKNKKKGLKE | 0.686 ± 0.0088
28 | NIKEKEIKRQVR | 0.693 ± 0.051
29 | NIKKLSHRTRRI | 0.857 ± 0.2
30 | NINKINKKCTRV | 0.645 ± 0.055
31 | NKEYSLIIKTHN | 0.61529 ± 0.00011
32 | NKISRDAVWNCR | 0.657 ± 0.053
33 | NKKDKKMNKDKR | 0.6791 ± 0.0014
34 | NKNKKKKEKKSR | 0.725 ± 0.12
35 | NKPRSYRVDKRQ | 0.615 ± 0.015
36 | NKRIRKIKKKCK | 0.701 ± 0.065
37 | NKRSNIKVSDQR | 0.691 ± 0.03
38 | NKTKKKRTEPQP | 0.6616 ± 0.005
39 | NKTNSKKSIFTV | 0.703 ± 0.01
40 | NLAVSFIVGGLW | 0.747 ± 0.026
41 | NLCPLPPPLLTS | 0.675 ± 0.035
42 | NLINPCRRPPVP | 0.648 ± 0.088
43 | NLRFTTSCNGPL | 0.649 ± 0.018
44 | NLRGPEYVKRTD | 0.677 ± 0.021
45 | NLSYPSCDPPAT | 0.5836 ± 0.0032
46 | NNLSPLPGPSLI | 0.713 ± 0.018
47 | NNSLKTTMVATK | 0.58 ± 0.065
48 | NNYPHSEKCLKE | 0.643 ± 0.009
49 | NPPALPPFSPSP | 0.708 ± 0.01
50 | NPPCPYPPLRPR | 0.595 ± 0.044
51 | NPVYSFRAHRLG | 0.5128 ± 0.0037
52 | NRDIYQNWPKRK | 0.831 ± 0.14

Row | Sequence | protein stability index
53 | NRGLYNLYRMSR | 0.645 ± 0.0027
54 | NRHGRALPSLEA | 0.644 ± 0.014
55 | NRNKKTKKKVII | 0.6697 ± 0.0062
56 | NRRVSGPLCMQE | 0.687 ± 0.054
57 | NRSKNKKIIREI | 0.6341 ± 0.0056
58 | NRTRFLSLDTRP | 0.719 ± 0.023
59 | NSAPPPPHTPPP | 0.699 ± 0.018
60 | NSSADRSTNPTQ | 0.649 ± 0.019
61 | NSSLSLPFGPPP | 0.69 ± 0.011
62 | NSTPTTPPIPHQ | 0.702 ± 0.091
63 | NSTTNVKTQHTL | 0.731 ± 0.023
64 | NSTTQKKEQKQI | 0.711 ± 0.043
65 | NSVMSRGCGNRG | 0.626 ± 0.044
66 | NTNSTRSDNVFD | 0.622 ± 0.011
67 | NTPHSRSLRSNH | 0.695 ± 0.017
68 | NTTTTKNRTPKR | 0.6952 ± 0.0063
69 | NVACNGKGEQVL | 0.7268 ± 0.0011
70 | NVCICSIRNATN | 0.804 ± 0.11
71 | NVENSNTAGKGV | 0.689 ± 0.024
72 | NVKPGKIRRRRG | 0.667 ± 0.14
73 | NVLVSPFVPLSF | 0.724 ± 0.0089
74 | NWAPRCCIGNII | 0.669 ± 0.12
75 | NWIIARFVPIGL | 0.685 ± 0.041
76 | NYLLYSRRSVRV | 0.532 ± 0.04
77 | PACPLISPIGRF | 0.673 ± 0.05
78 | PADLCPPGSLSP | 0.683 ± 0.01

Row | Sequence | protein stability index
79 | PADSRGNSPPPQ | 0.675 ± 0.055
80 | PAHPGRPPILGS | 0.597 ± 0.036
81 | PAHRRLLPWPPA | 0.71 ± 0.14
82 | PAIPPPPTAAPT | 0.678 ± 0.087
83 | PAKNKKKKKNRK | 0.6911 ± 0.0031
84 | PALASHLAPLDP | 0.6958 ± 0.0049
85 | PALPAPFLSSPH | 0.6737 ± 0.00099
86 | PALPFPPLTAFH | 0.683 ± 0.036
87 | PAPDATQRVRSQ | 0.645 ± 0.0089
88 | PAPLPFPLPTSL | 0.757 ± 0.015
89 | PAPPAPTHAPPL | 0.683 ± 0.11
90 | PAPPCPGTSPFP | 0.7055 ± 0.001
91 | PAPPFPPRPSPF | 0.673 ± 0.056
92 | PAPPHPRIPSPT | 0.669 ± 0.073
93 | PAPPLPLTPPPL | 0.788 ± 0.014
94 | PAPPPLPPHSLP | 0.718 ± 0.024
95 | PAPPPPPPPLYP | 0.718 ± 0.013
96 | PAPPPPPPTPPP | 0.646 ± 0.039
97 | PAPPPPPPTTVL | 0.691 ± 0.03
98 | PAPPPRDLPTPP | 0.664 ± 0.007
99 | PAPPPRRPPAPP | 0.689 ± 0.017
100 | PAPPPSSPRSIH | 0.674 ± 0.032
101 | PAPPSLAAPRGT | 0.663 ± 0.0092
